In article PMC7267776:

Biological target: AcrB (from pET21a-acrBΔHis) (E. coli) (UniProt P31224)
Assay: cryo-EM structure; AcrB/DARPin and AcrBZ/DARPin reconstituted in saposin A discs with E. coli lipids, with or without additional 5% cardiolipin; 20 mM Tris-Cl pH 7.5, 150 mM NaCl; 2 mM minocycline (AcrB) or 1 mM chloramphenicol (AcrBZ) added

## AcrB (from pET21a-acrBΔHis) (from UniProt P31224) (natural protein)
  stoichiometry N: 3
